Columns and labels:
[1] = test system: SH-SY5Y neuroblastoma cells; assay: Apoptosis assay, Annexin V-FITC staining; type: cell-based; settings: SHSY-5Y cells, 1 μM, data not shown
[2] = Quasielastic light scattering spectroscopy; type: physicochemical; settings: QLS
Thioflavin T = type: physicochemical; settings: 20 µM peptide, 40 µM ThT, pH 7.5, 37°C, shaking
[3] = Ion mobility-mass spectrometry, oligomer distributions; type: physicochemical; settings: IM-MS, 10 μM peptide in 10 mM ammonium acetate, pH 7.4
[4] = Bis-ANS fluorescence, exposure of hydrophobic surfaces; type: physicochemical; settings: 20 µM peptide incubated at 37°C, shaking
[5] = Thermodynamics of fibril formation; type: physicochemical; settings: ΔG^0 = −RT ln (1/Cr); 20 μM, 37°C, 21 days without shaking; four independent experiments
[6] = Electron microscopy of assembly morphology; type: physicochemical; settings: EM
[7] = test system: differentiated PC12 cells; assay: MTT assay; type: cell-based; settings: NGF-differentiated PC12 cells, 10 µM freshly prepared peptide, 24 h, 37°C; normalized to media control; three independent experiments, 6 wells
[8] = Oligomerization by PICUP and SDS-PAGE; type: physicochemical; settings: 25–35 μM peptide, cross-linked, SDS-PAGE, silver staining

## CN[C@@H]1C[C@H]2O[C@@](C)([C@@H]1OC)n1c3ccccc3c3c4c(c5c6ccccc6n2c5c31)C(=O)NC4 [staurosporine]
[1]
  effect of positive control on cells: complete disruption of membrane integrity

## Amyloid β−protein (1–42) [Aβ42]
[2]; 0.5 h of incubation
  RH of small particles, initial distribution: 8–10 nm
[2]; 0.5 h of incubation, relatively few particles
  RH of larger particles also observed, initial distribution: 100–1000 nm
[2]; 24 h of incubation
  RH of oligomers remaining after 24 h: 8–10 nm
  maximal RH after 24 h: > 1000 nm
Thioflavin T
  time ThT fluorescence remained constant (lag): ≈ 1 h
[3]
  oligomers assigned in ATD of z/n = −5/2 peak: dimer, tetramer, hexamer, and dodecamer
[4]
  time of peak Bis-ANS fluorescence: 4 h
[5]
  ΔG^0 of fibril formation: −8.45 (0.12) kcal/mole
[6]; 37°C with shaking, day 0, Image J
  globules, size range, Day 0: 11–23 nm
[6]; 37°C with shaking, day 7
  long fibrils, size range, Day 7: 9–21 nm
[6]; 37°C with shaking, day 7, value in parentheses
  short fibrils, assembly length, Day 7: 56–303 nm
[6]; day 0
  annuli, inside diameter, Day 0: 4–11 nm
  annuli, outside diameter, Day 0: 13–25 nm
[7]
  decrease in MTT metabolism: ≈ 23%
[8]
  oligomer size distribution by PICUP: prominent node of band intensity at pentamer-hexamer

Reference: PMC4844016 (ACS chemical neuroscience, 2015)
